In assay [1] the target is SARS-CoV-2 Omicron BA.1 RBD, yeast-displayed (SARS-CoV-2, UniProt P0DTC2). Briefly: flow cytometry on cells. As to conditions: one partner purified. (In general: A flow cytometer gives signals particle by particle.)
For assay [2], the target named is SARS-CoV-2 Omicron BA.2 RBD, yeast-displayed (SARS-CoV-2, UniProt P0DTC2). Briefly: flow cytometry on cells. As to conditions: one partner purified.

The results in this text go back to article PMC9409550 (PLoS ONE, 2022).

B1: CDY14HL-Fc1 (Fc fusion)
chain: QSTIEEQAKTFLDMFNHKAEDLFYQSSLAAWNYNTNITEENVQNMNNAGDKWSAFLKEQSTFAQMYPLQEIQNPTVKLQLQALQQNGSSVLSEDKSKRLNTILNTMSTIYSTGKVCNPDNPQECLLLEPGLNEIMANSLDYNERLWAWESWRSEVGKQLRPLYEEYVVLKNEMARANHYEDYGDYWRGDYEVNGVDGYDYSRGQLIEDVEHTFEEIKPLYEHLHAYVRAKLMNAYPSYISPIGCLPAHLLGDMWGRFWTNLYSLTVPFGQKPNIDVTDAMVDQAWDAQRIFKEAEKFFVSVGLPNMTQGFWEYSMLTDPGNVQKAVCLPTAWDLGKGDFRILMCTKVTMDDFLTAHHEMGHIQYDMAYAAQPFLLRNGANEGFHEAVGEIMSLSAATPKHLKSIGLLSPDFQEDNETEINFLLKQALTIVGTLPFTYMLEKWRWMVFKGEIPKDQWMKKWWEMKREIVGVVEPVPHDETYCDPASLFHVSNDYSFIRYYTRTLYQFQFQEALCQAAKHEGPLHKCDISNSTEAGQKLFNMLRLGKSEPWTLALENVVGAKNMNVRPLLNYFEPLFTWLKDQNKNSFVGWSTDWSPYAD
For the molecule B1, the Kd in assay [1] is 0.031 nM; in assay [2], 0.024 nM.

As usually defined, the Kd is a measure of binding affinity in units of concentration. Low readings indicate a tighter complex, high ones a looser complex.
